From patent EP3926342A1 come the findings set out here.

The target in assay [1] is recombinant human ICAM-1/CD54 (R&D Systems) (human) (UniProt P05362).
The target in assay [2] is human rhinovirus strain RV89 (major group RV-A), purified virus (human rhinovirus) (UniProt P07210). The assay can be described thus: fluid phase competition ELISA: RV89 (25 µg/ml) pre-incubated with 50 µg/ml soluble ICAM-1, then added to plate-bound ICAM-1. (An ELISA detects its analyte on a solid surface through an enzyme-linked reagent.)
Chain of human rhinovirus strain RV89 (major group RV-A), purified virus (human rhinovirus) (P07210 2-866): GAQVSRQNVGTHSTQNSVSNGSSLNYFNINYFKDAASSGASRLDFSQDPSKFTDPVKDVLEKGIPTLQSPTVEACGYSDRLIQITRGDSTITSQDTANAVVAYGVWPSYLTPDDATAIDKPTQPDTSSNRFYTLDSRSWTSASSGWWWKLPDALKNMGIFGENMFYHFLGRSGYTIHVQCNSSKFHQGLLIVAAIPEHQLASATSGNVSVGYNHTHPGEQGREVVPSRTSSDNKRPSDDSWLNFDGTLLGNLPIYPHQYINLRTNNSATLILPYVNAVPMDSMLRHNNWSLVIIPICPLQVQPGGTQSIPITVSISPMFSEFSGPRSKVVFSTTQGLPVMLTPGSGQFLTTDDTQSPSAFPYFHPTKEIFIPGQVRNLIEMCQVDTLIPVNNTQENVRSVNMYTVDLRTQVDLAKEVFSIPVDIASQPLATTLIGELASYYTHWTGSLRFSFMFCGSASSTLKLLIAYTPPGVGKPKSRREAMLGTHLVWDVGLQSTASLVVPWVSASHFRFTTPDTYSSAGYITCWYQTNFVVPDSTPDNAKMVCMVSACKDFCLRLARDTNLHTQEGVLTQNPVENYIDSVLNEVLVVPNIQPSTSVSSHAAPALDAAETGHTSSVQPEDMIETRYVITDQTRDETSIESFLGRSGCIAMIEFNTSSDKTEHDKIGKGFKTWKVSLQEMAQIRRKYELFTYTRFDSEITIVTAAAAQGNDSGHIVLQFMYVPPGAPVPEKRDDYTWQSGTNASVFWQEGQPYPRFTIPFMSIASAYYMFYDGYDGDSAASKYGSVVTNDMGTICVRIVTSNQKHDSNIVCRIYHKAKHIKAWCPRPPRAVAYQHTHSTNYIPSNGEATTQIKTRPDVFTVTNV
For assay [3], the target named is biotinylated RV89 (human rhinovirus) (UniProt P07210).
Chain of biotinylated RV89 (human rhinovirus) (P07210 2-866): as above
Assay [4] concerns the target human rhinovirus strain RV2 (minor group RV-A), purified virus (human rhinovirus) (UniProt P04936). Description: fluid phase competition ELISA: RV2 (5 µg/ml as printed here) pre-incubated with 50 µg/ml soluble LDLR, then added to plate-bound LDLR.

Chain of recombinant human ICAM-1/CD54 (R&D Systems) (human) (P05362 28-480 limits assumed): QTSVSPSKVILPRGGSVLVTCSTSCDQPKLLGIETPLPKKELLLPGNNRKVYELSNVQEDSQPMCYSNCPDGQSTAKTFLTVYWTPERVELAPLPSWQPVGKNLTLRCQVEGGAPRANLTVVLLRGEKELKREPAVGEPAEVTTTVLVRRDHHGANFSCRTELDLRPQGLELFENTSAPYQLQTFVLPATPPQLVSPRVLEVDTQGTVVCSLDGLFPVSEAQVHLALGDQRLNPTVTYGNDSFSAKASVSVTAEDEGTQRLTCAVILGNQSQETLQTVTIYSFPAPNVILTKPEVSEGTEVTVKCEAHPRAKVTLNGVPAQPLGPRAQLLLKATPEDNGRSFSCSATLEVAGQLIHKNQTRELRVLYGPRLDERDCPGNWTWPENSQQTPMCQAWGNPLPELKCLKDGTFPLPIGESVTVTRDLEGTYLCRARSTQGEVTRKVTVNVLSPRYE
Chain of recombinant human ICAM-1/CD54 (R&D Systems) (P05362 28-480 limits assumed): as above
Chain of human rhinovirus strain RV2 (minor group RV-A), purified virus (human rhinovirus) (P04936 2-850): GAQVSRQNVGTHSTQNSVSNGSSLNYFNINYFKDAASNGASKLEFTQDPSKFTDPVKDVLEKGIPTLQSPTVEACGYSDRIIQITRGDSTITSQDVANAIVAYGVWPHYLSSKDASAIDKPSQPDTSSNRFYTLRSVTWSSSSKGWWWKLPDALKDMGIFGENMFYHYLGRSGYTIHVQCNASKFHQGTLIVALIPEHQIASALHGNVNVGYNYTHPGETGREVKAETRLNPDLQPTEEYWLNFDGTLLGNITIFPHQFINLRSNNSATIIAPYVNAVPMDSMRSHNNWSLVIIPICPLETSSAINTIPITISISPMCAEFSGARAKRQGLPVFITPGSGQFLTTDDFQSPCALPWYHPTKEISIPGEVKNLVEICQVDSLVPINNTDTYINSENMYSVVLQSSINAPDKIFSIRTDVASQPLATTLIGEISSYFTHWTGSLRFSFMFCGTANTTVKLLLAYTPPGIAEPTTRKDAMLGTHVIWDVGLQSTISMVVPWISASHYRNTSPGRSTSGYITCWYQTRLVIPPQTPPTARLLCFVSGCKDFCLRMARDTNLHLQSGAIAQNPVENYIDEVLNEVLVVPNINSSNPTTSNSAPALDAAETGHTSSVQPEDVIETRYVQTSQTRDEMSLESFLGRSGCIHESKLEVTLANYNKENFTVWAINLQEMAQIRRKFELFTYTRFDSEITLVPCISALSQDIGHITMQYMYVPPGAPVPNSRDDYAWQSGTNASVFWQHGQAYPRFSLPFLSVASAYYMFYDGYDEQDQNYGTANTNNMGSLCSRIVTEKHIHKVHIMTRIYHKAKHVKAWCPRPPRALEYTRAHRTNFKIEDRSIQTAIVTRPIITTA

In the case of “human rhinovirus strain RV89 (major group RV-A), purified virus (from UniProt P07210 2-866)”, in assay [1], the lowest virus concentration at which binding to ICAM-1 was detected amounted to 6.25 µg/mL. In assay [2], “recombinant human ICAM-1/CD54 (R&D Systems) (from UniProt P05362 28-480) (receptor)” registered a percent inhibition of RV89 binding to plate-bound ICAM-1 greater than 95%. Regarding “biotinylated RV89 (from UniProt P07210 2-866)”, the lowest virus concentration at which binding to ICAM-1 was detected in assay [1] stood at 6.25 µg/mL. “ultrasensitive Streptavidin-Peroxidase Polymer (Merck) (from UniProt P22629 37-163)” gave a lowest coated concentration of biotinylated RV89 that was detected in assay [3] of 0.625 µg/mL. In turn, “recombinant human LDLR (R&D Systems) (from UniProt P01130 22-788) (receptor)” yielded a percent inhibition of RV2 binding to plate-bound LDLR in assay [4] greater than 60%.
